{
  "source": "patent US8258099B2",
  "about": "“Pin1-modulating compounds and methods of use thereof” (Max-Planck-Gesellschaft zur Foerderung der Wissenschaften …, priority 2004, dated 2012)",
  "key": {"full length hPin1": {"target": "T1, full length hPin1 (Homo sapiens, UniProt Q13526)", "T1 construct": "The protease free assay ensures reliable measurement of IC50 values for the full-length hPin1", "T1 sequence (Q13526 whole entry)": "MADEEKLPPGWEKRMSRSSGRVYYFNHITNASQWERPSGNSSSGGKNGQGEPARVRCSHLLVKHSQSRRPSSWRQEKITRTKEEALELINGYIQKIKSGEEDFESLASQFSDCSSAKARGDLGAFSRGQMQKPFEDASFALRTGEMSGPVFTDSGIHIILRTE", "assay": "Isothermal titration calorimetry (ITC), full length hPin1", "format": "binding", "experimental": "FIGS. 3A-B depicts a thermodynamic characterization of the binding of peptide 17 towards full length hPin1 by isothermal titration calorimetry (ITC). FIG. 3A depicts peaks that represent the heat evolved after injection of peptide 17 into the sample cell containing hPin1. After the 11th injection only the heat of dilution is observed. The experiment was performed at 10 C. FIG. 3B depicts integrals of the corresponding peaks of panel A are plotted against the molar ratio of peptide 17 and hPin1. The solid line represents a nonlinear least squares fit analysis of the binding heat assuming a single binding site model with the following parameters: ΔHbind=−4561±36 cal/mol, TΔSbind=5433±529 cal/mol, n=0.96 (binding stoichiometry) and KAss=5.18×10^7±7×10^6 M^−1 (association constant).\nCalorimetric experiments were performed using a VP-ITC titration calorimeter (MicroCal, Inc, Northampton, Mass.) at 10° C. All solutions were degassed under vacuum prior to use. Solutions of hPin1 and hPin1 PPIase domain were dialyzed against 10 mM Hepes (pH 7.8). The protein concentration in the sample cell was adjusted to 6.5 μM using the same batch of buffer. Protein concentrations were determined as described above. The volume of the protein solution in the sample cell was 1.4 ml. The injection syringe was filled with 300 μl solution of peptide 17 (see table III) (250 μM in the same batch of buffer as used for dialyses). Each titration experiment consisted of a single 1 μl injection followed by 16 identical injections of 5 μl solution of peptide 17.\nIn principle, minimally four forms of a competing substrate in the presence of hPin1 have to be considered, the free cis and trans isomers together with two Michaelis complexes. This four-site exchange model of PPIase catalysis involves understanding predisposing factors of the stability of hPin1/substrate complexes, expected to be weaker, than the stability for those formed by phosphopeptides lacking substrate properties. The consequent increase in inhibitory potency could be realized by a transition state destabilizing substitution in peptide 15. Previous studies have shown that following C^α-stereocenter inversion of a substrate at the P1 position the parvulins fully retain substrate-like active site affinity for the derivatives while catalytic rate acceleration is abolished (Schiene et al., 1998). […] To optimize solute diffusion after mechanical injection of the Pin1 binding peptides into the viscous Xenopus laevis egg cytosol, the molecular weight of 1376.5 for peptide 16 was reduced to 823.8 for peptide 17. Following chain truncation peptide 17 maintained high affinity for Pin1 (Table III). To ensure domain selectivity, the binding of peptide 17 towards hPin1 was characterized using the isothermal titration calorimetry (ITC). […] The dissociation constant determined with ITC is in the same range as obtained in the protease-free PPIase assay (Table III)."}, "hPin1": {"target": "T2, hPin1 (Homo sapiens, UniProt Q13526)", "T2 construct": "The protease free assay ensures reliable measurement of IC50 values for the full-length hPin1", "T2 sequence (Q13526 whole entry, the tested form may be a part)": "as the sequence (Q13526 whole entry) above", "assay": "Protease free PPIase assay, hPin1", "format": "biochemical", "conditions": "25 μM, phosphoester group on threonine lacking", "experimental": "Protein concentrations were determined using the extinction coefficient ε280=21030 M^−1 cm^−1 for hPin1, ε280=6979 M^−1 cm^−1 for the hPin1 PPIase domain, ε280=21030 M^−1 cm^−1 for XlPin1, ε280=8250 M^−1 cm^−1 for hPar14 and ε280=8250 M^−1 cm^−1 for hCyp18. Extinction coefficients were calculated using the program ProtParam Tool at ExPASy (SIB, Switzerland). All measurements were done at 10° C. in 35 mM Hepes buffer (pH 7.8).\nThe determination of the kinetic constants of the cis/trans isomerization within the protease-free system was performed using fluorescence based measurements (Garcia-Echeverria et al., 1993, Zhang et al., 2002) on a Hitachi F-3010 fluorescence spectrophotometer with H-Abz-Ala-Glu-Pro-Phe-NH-Np (SEQ ID NO: 2) as substrate. The substrate stock solution was 12 mM in anhydrous trifluoroethanol/0.55 M LiCl. Measurements were initiated by addition of the substrate (final concentration 10 μM) to a pre-incubated (15 min) mixture of 8.8 nM hPin1 or 7.1 nM XlPin1 and respective inhibitory peptide of desired concentrations. The excitation wavelength was 320 nm (spectral bandwidth 3 nm) and emission was detected at 420 nm (spectral bandwidth 10 nm).\nData analysis was performed by single-exponential nonlinear regression using the SigmaPlot Scientific Graphing System Version 5.00 (Jandel Corp.). The apparent first order rate constant kobs was computed by nonlinear regression of the progress curve obtained for the respective measurement. The rate constant k0 was determined in the absence of Pin1. The first order rate constants kenz was calculated from the equation kenz=kobs−k0. IC50 and Ki values were determined by fitting the first order rate constants kenz against the concentration of the inhibitory peptide by nonlinear regression according to Schutkowski et al., 1995 or a model for tight binding inhibitors (Morrison, 1969).\nThe protease free assay ensures reliable measurement of IC50 values for the full-length hPin1."}, "[1]": {"target": "T3, GST-hPin1, GST-hPin1 PPIase and GST-hPin1 WW domain (Homo sapiens, UniProt Q13526)", "T3 construct": "made in house", "T3 sequence (Q13526 whole entry, the tested form may be a part)": "as the sequence (Q13526 whole entry) above", "assay": "Far western blot related analysis, hPin1 and its single domains", "format": "binding", "conditions": "1 μM peptide 15, 50 μM nonphosphorylated derivative", "experimental": "FIGS. 2A-B depict western blot experiments analyzing the binding of peptide 15 to Pin1. FIG. 2A depicts the binding preferences of the PPIase and WW domain of hPin1 regarding peptide 15. In far western blot related experiments, increasing amounts (from left to right: 1, 5, 10, 52.5, 105 pmol) of GST, GST-hPin1 or its single GST-hPin1 PPIase and GST-hPin1 WW domain were spotted onto nitrocellulose membranes followed by a blocking procedure. The membranes were then incubated with a 1 μM solution of peptide 15 or 50 μM solution of its nonphosphorylated derivative (control). Signals were detected after incubation of the nitrocellulose membranes with horseradish peroxidase-conjugated streptavidin followed by a chemiluminescent reaction using the SuperSignal® substrate. FIG. 2B depicts an analysis of the binding of peptide 15 towards different GST-hPin1 variants. […] Residual PPIase activities of GST-hPin1 and its variants were determined according to Zhou et al., 2000 and/or Yaffe et al., 1997. The PPIase activity of the GST-hPin1 variant Ser16Glu was measured in the protease free PPIase assay.\nGST-hPin1 variants, GST-hPin1 PPIase and GST-hPin1 WW domain were prepared as described previously (Ranganathan et al., 1997, Zhou et al., 2000). […] Specific bound peptide 15 was detected by a chemiluminescent reaction using the SuperSignal® substrate (Pierce)."}},
  "note": "Square brackets hold non-standard residues; d marks the D form. Peptide text beside a SMILES is read from it. * marks the point of attachment. Biotin = O=C1N[C@H]2[C@H](CS[C@H]2CCCCC(=O)*)N1; pT = C[C@@H](OP(=O)(O)O)[C@H](N)C(=O)O; 2Nal = N[C@@H](Cc1ccc2ccccc2c1)C(=O)O; Bta = N[C@@H](Cc1csc2ccccc12)C(=O)O; Pip = O=C(O)[C@@H]1CCCCN1",
  "data": [
    {"molecule": "CC(=O)N[C@@H](Cc1ccccc1)C(=O)N[C@H](C(=O)N1CCCC[C@H]1C(=O)N[C@@H](Cc1ccc2ccccc2c1)C(=O)N[C@@H](CCC(N)=O)C(N)=O)[C@@H](C)OP(=O)(O)O", "note": "[Ac-Phe-L-Thr(PO3H2)-Pip-Nal-Gln-NH2, reference compound] (Ac-F[pT][Pip][2Nal]Q-NH2)", "values": [
      {"measurement": "Kd", "setting": "full length hPin1", "result": 600, "unit": "nM"}
    ]},
    {"molecule": "nonphosphorylated derivative of peptide 15: peptide 15 lacking the phosphoester group on threonine, used as control (Ac-K(Biotin)AA[Bta]T[Pip][2Nal]Q-NH2; SMILES CC(=O)N[C@@H](CCCCNC(=O)CCCC[C@@H]1SC[C@@H]2NC(=O)N[C@@H]21)C(=O)N[C@@H](C)C(=O)N[C@@H](C)C(=O)N[C@@H](Cc1csc2ccccc12)C(=O)N[C@H](C(=O)N1CCCC[C@H]1C(=O)N[C@@H](Cc1ccc2ccccc2c1)C(=O)N[C@@H](CCC(N)=O)C(N)=O)[C@@H](C)O) [reference compound]", "values": [
      {"measurement": "hPin1 inhibition", "setting": "hPin1", "result": "does not show any hPin1 inhibition"},
      {"measurement": "binding to GST-hPin1 and its PPIase and WW domains", "setting": "[1]", "result": "not able to form a complex"}
    ]}
  ]
}
